In US20110300138A1 (published 2011):

Experiments:
[1] = target: human TSHR (thyroid stimulating hormone receptor) expressed in transfected CHO cells (human) (UniProt P16473); test: cell-based or functional assay
[2] = target: human TSH receptor (full length, wild type) expressed in CHO cells (human) (UniProt P16473); test: cell-based or functional assay
[3] = target: human TSH receptor (TSHR), wild type, expressed in CHO cells (human) (UniProt P16473); test: cell-based or functional assay
[4] = target: human TSH receptor (full length, wild type) expressed on CHO cells (human) (UniProt P16473); test: cell-based or functional assay
[5] = target: human TSH receptor (wild type), expressed on transfected CHO cells (human) (UniProt P16473); test: cell-based or functional assay
[6] = target: human TSHR (wild type, full length) expressed in CHO cells (human) (UniProt P16473); test: cell-based or functional assay
[7] = target: human TSHR expressed in CHO cells (human) (UniProt P16473); test: cell-based or functional assay
[8] = target: TSHR260-alkaline phosphatase (TSHR260-AP) (human) (UniProt P05187); test: TSHR260-AP bridge ELISA, full length TSHR on wells; 1 µg/mL, diluted in HBD
[9] = target: TSHR260-alkaline phosphatase (TSHR260-AP) (human) (UniProt P05187); test: TSHR260-AP bridge ELISA, full length TSHR on wells; 100 µg/mL, diluted in HBD
[10] = target: TSHR260-alkaline phosphatase (TSHR260-AP) (human) (UniProt P05187); test: TSHR260-AP bridge ELISA, full length TSHR on wells; 10 µg/mL, diluted in assay buffer
[11] = target: TSHR260-alkaline phosphatase (TSHR260-AP) (human) (UniProt P05187); test: TSHR260-AP bridge ELISA, full length TSHR on wells; 0.5 µg/mL, diluted in assay buffer
[12] = target: TSHR260-alkaline phosphatase (TSHR260-AP) (human) (UniProt P05187); test: TSHR260-AP bridge ELISA, full length TSHR on wells; 250 µg/mL, diluted in assay buffer
TSHR260-AP (human) [13] = test: TSHR260-AP bridge ELISA (full length TSHR on wells, TSHR260-AP in solution); IgG 100 µg/mL diluted in HBD serum
TSHR260-AP (human) [14] = test: TSHR260-AP bridge ELISA (full length TSHR on wells, TSHR260-AP in solution); IgG 0.05 µg/mL diluted in HBD serum
TSHR260-AP (human) [15] = test: TSHR260-AP bridge ELISA (full length TSHR on wells, TSHR260-AP in solution); IgG 1 µg/mL diluted in assay buffer
TSHR260-AP (human) [16] = test: TSHR260-AP bridge ELISA (full length TSHR on wells, TSHR260-AP in solution); IgG 0.005 µg/mL diluted in HBD serum
TSHR260-AP (human) [17] = test: TSHR260-AP bridge ELISA (full length TSHR on wells, TSHR260-AP in solution); IgG 10 µg/mL diluted in assay buffer
TSHR260-AP (human) [18] = test: TSHR260-AP bridge ELISA (full length TSHR on wells, TSHR260-AP in solution); IgG 0.5 µg/mL diluted in assay buffer
TSHR260-AP (human) [19] = test: TSHR260-AP bridge ELISA (full length TSHR on wells, TSHR260-AP in solution); IgG 0.05 µg/mL diluted in assay buffer
TSHR260-AP (human) [20] = test: TSHR260-AP bridge ELISA (full length TSHR on wells, TSHR260-AP in solution); IgG 0.005 µg/mL diluted in assay buffer

5B3 IgG (antibody)
Cyclic AMP concentration; 3 ng/mL M22 IgG + 10 µg/mL 5B3 IgG [1]: 21.6 pmol/mL
Cyclic AMP concentration; 3 ng/mL M22 IgG + 100 µg/mL 5B3 IgG [1]: 28.1 pmol/mL
Cyclic AMP concentration; 100 µg/mL 5B3 IgG [1]: 1.1 pmol/mL
% Inhibition; T4 serum + 100 µg/mL 5B3 IgG [2]: 30.3%
% Inhibition; T5 serum + 100 µg/mL 5B3 IgG [2]: 0%
% Inhibition; T6 serum + 100 µg/mL 5B3 IgG [2]: 1.8%
Cyclic AMP concentration; 100 µg/mL 5B3 IgG alone [2]: 2.6 pmol/mL
Cyclic AMP concentration; HBD + 100 µg/mL 5B3 IgG [2]: 3 pmol/mL
Cyclic AMP concentration; T4 serum + 100 µg/mL 5B3 IgG [2]: 55 pmol/mL
Cyclic AMP concentration; T5 serum + 100 µg/mL 5B3 IgG [2]: 66.7 pmol/mL
Cyclic AMP concentration; T6 serum + 100 µg/mL 5B3 IgG [2]: 81.5 pmol/mL
Cyclic AMP concentration in hypotonic medium; 1 µg/mL 5B3 IgG + 3 ng/mL pTSH [3]: 71.9 pmol/mL
Cyclic AMP concentration in hypotonic medium; 3 µg/mL 5B3 IgG + 3 ng/mL pTSH [3]: 75.7 pmol/mL
Cyclic AMP concentration in hypotonic medium; 3 µg/mL 5B3 IgG alone [3]: 1.9 pmol/mL
Cyclic AMP concentration in isotonic medium; 1 µg/mL 5B3 IgG + 3 ng/mL pTSH [3]: 39.5 pmol/mL
Cyclic AMP concentration in isotonic medium; 3 µg/mL 5B3 IgG + 3 ng/mL pTSH [3]: 42.5 pmol/mL
Cyclic AMP concentration in isotonic medium; 3 µg/mL 5B3 IgG alone [3]: 0.5 pmol/mL
% Inhibition of M22 IgG (3 ng/mL) stimulation; 100 µg/ml 5B3 IgG [4]: 0%
% Inhibition of pTSH (1 ng/mL) stimulation; 10 µg/mL 5B3 IgG [4]: 0%
% Inhibition of pTSH (1 ng/mL) stimulation; 100 µg/mL 5B3 IgG [4]: 0%
Cyclic AMP concentration in hypotonic medium; 100 µg/mL 5B3 IgG alone [4]: 2.2 pmol/mL
Cyclic AMP concentration in isotonic medium; 100 µg/mL 5B3 IgG alone [4]: 1.4 pmol/mL
Cyclic AMP concentration; 1 ng/mL pTSH + 10 µg/mL 5B3 IgG [4]: 80.7 pmol/mL
Cyclic AMP concentration; 1 ng/mL pTSH + 100 µg/mL 5B3 IgG [4]: 79.3 pmol/mL
Cyclic AMP concentration; 3 ng/mL M22 IgG + 100 µg/ml 5B3 IgG [4]: 41.8 pmol/mL
Cyclic AMP concentration; 100 µg/mL 5B3 IgG alone (no TSH) [4]: 2.6 pmol/mL
Cyclic AMP concentration; 5B3 IgG 100 µg/mL alone [4]: 1.2 pmol/mL
% Inhibition (constitutive activity); 0.01 µg/mL 5B3 IgG [5]: 0%
% Inhibition (constitutive activity); 0.1 µg/mL 5B3 IgG [5]: 0%
% Inhibition (constitutive activity); 0.2 µg/mL 5B3 IgG [5]: 8.2%
% Inhibition (constitutive activity); 1 µg/mL 5B3 IgG [5]: 6.3%
% Inhibition (constitutive activity); 2 µg/mL 5B3 IgG [5]: 12.9%
% Inhibition; 5B3 IgG 0.1 µg/mL + T11 [5]: 29.8%
% Inhibition; 5B3 IgG 1 µg/mL + T11 [5]: 21.4%
% Inhibition; 5B3 IgG 10 µg/mL + T11 [5]: 25.4%
% Inhibition; 5B3 IgG 100 µg/mL + T11 [5]: 27%
% Inhibition; pTSH 3 ng/mL + 10 µg/mL 5B3 [5]: 0%
% Inhibition; pTSH 3 ng/mL + 100 µg/mL 5B3 [5]: 0.5%
Cyclic AMP concentration; 100 µg/mL 5B3 alone [5]: 0.9 pmol/mL
Cyclic AMP concentration; 5B3 IgG 0.1 µg/mL + T11 [5]: 17.7 pmol/mL
Cyclic AMP concentration; 5B3 IgG 1 µg/mL + T11 [5]: 19.8 pmol/mL
Cyclic AMP concentration; 5B3 IgG 10 µg/mL + T11 [5]: 18.8 pmol/mL
Cyclic AMP concentration; 5B3 IgG 100 µg/mL + T11 [5]: 18.4 pmol/mL
Cyclic AMP concentration; 5B3 IgG 100 µg/mL alone [5]: 1 pmol/mL
Cyclic AMP concentration; pTSH 3 ng/mL + 10 µg/mL 5B3 [5]: 66.9 pmol/mL
Cyclic AMP concentration; pTSH 3 ng/mL + 100 µg/mL 5B3 [5]: 63.9 pmol/mL
Cyclic AMP production (constitutive activity); 0.01 µg/mL 5B3 IgG [5]: 58.2 pmol/mL
Cyclic AMP production (constitutive activity); 0.1 µg/mL 5B3 IgG [5]: 58.8 pmol/mL
Cyclic AMP production (constitutive activity); 0.2 µg/mL 5B3 IgG [5]: 53.3 pmol/mL
Cyclic AMP production (constitutive activity); 1 µg/mL 5B3 IgG [5]: 54.4 pmol/mL
Cyclic AMP production (constitutive activity); 2 µg/mL 5B3 IgG [5]: 50.6 pmol/mL
% Inhibition of T5 serum stimulation; 0.1 µg/mL 5B3 IgG [6]: 7%
% Inhibition of T5 serum stimulation; 1 µg/mL 5B3 IgG [6]: 4.1%
% Inhibition of T5 serum stimulation; 10 µg/mL 5B3 IgG [6]: 3.1%
% Inhibition of T5 serum stimulation; 100 µg/mL 5B3 IgG [6]: 12.5%
Cyclic AMP concentration; 0.1 µg/mL 5B3 IgG + T5 [6]: 59.4 pmol/mL
Cyclic AMP concentration; 1 µg/mL 5B3 IgG + T5 [6]: 61.3 pmol/mL
Cyclic AMP concentration; 10 µg/mL 5B3 IgG + T5 [6]: 61.9 pmol/mL
Cyclic AMP concentration; 100 µg/mL 5B3 IgG + T5 [6]: 55.9 pmol/mL
Cyclic AMP concentration; 100 µg/mL 5B3 IgG alone [6]: 1.1 pmol/mL
% Inhibition; 3 ng/mL pTSH + 10 µg/mL 5B3 IgG [7]: 7%
% Inhibition; 3 ng/mL pTSH + 100 µg/mL 5B3 IgG [7]: 7%
% Inhibition; 5B3 IgG 10 µg/mL + 3 ng/mL pTSH [7]: 0%
% Inhibition; 5B3 IgG 100 µg/mL + 3 ng/mL pTSH [7]: 0%
Mean absorbance at 405 nm (absorbance at 405 nm) [8]: 0.049
Mean absorbance at 405 nm (absorbance at 405 nm) [9]: 0.003
Mean absorbance at 405 nm (absorbance at 405 nm) [10]: -0.014
Mean absorbance at 405 nm (absorbance at 405 nm) [11]: -0.006
Mean absorbance at 405 nm (absorbance at 405 nm) [12]: 0.018
Mean absorbance at 405 nm (absorbance at 405 nm) (TSHR260-AP (human) [13]): 0.003
Mean absorbance at 405 nm (absorbance at 405 nm) (TSHR260-AP (human) [14]): -0.006
Mean absorbance at 405 nm (absorbance at 405 nm) (TSHR260-AP (human) [15]): -0.004
Mean absorbance at 405 nm (absorbance at 405 nm) (TSHR260-AP (human) [16]): -0.002
Mean absorbance at 405 nm (absorbance at 405 nm) (TSHR260-AP (human) [17]): -0.014
Mean absorbance at 405 nm (absorbance at 405 nm) (TSHR260-AP (human) [18]): -0.006
Mean absorbance at 405 nm (absorbance at 405 nm) (TSHR260-AP (human) [19]): -0.009
Mean absorbance at 405 nm (absorbance at 405 nm) (TSHR260-AP (human) [20]): -0.012
